Results on 2 molecules are retold here after patent US20020081652A1 (YEDA RESEARCH AND DEVELOPMENT, published 2002).

In one assay the target is T1, α-bungarotoxin (UniProt P60615 22-95).
T1 sequence: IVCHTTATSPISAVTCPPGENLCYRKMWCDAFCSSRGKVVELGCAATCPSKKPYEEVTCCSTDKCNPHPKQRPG
As to the kind of experiment: blot overlay with 125I-α-BTX, 20 µg fragment.

Another assay deals with mAb 198. As to the kind of experiment: competition ELISA: fragment preincubated with mAb 198, binding of mAb 198 to coated Torpedo AChR read. On the technique in general: In an ELISA, binding on a coated surface is turned into a signal by an enzyme label.

Procedure for mAb 198: Microtiter plates were coated with Torpedo AChR (1 μg/ml) in PBS and incubated overnight at 4° C.

B1: Hα1-210 fused to thioredoxin (Trx-Hα1-210) (receptor)
chain: SEHETRLVAKLFKDYSSVVRPVEDHRQVVEVTAGLQLIQLINVDEVNQIVTTNVRLKQGDMVDLPRPSCVTLGVPLFSHLQDEQWVDYNLKWNPDDYGGVKKIHIPSEKIWRPDLVLYNNADGDFAIVKFTKVLLQYTGHITWTPPAIFKSYCEIIVTHFPFDEQNCSMKLGTWTYDGSVVAINPESDQPDLSNFMESGEWVIKESRGWKHSVTYSCCPDTPYLDITYHFVMQRL
notes: Solubilised from inclusion bodies in 9 M urea and dialysed; also called Trx-H1α-210; 'more native' fragment; not shown: thioredoxin (Trx) encoded by the pThioHis-A vector (Invitrogen); the vector's thioredoxin may
Regarding B1, in the assay with α-bungarotoxin, the binding result is reported as “binds”. In the assay with mAb 198, the IC50 (commonly the concentration that gives 50% inhibition) is 300 nM.

B2: Hα1-205 expressed with no fusion partner (receptor)
chain: SEHETRLVAKLFKDYSSVVRPVEDHRQVVEVTAGLQLIQLINVDEVNQIVTTNVRLKQGDMVDLPRPSCVTLGVPLFSHLQDEQWVDYNLKWNPDDYGGVKKIHIPSEKIWRPDLVLYNNADGDFAIVKFTKVLLQYTGHITWTPPAIFKSYCEIIVTHFPFDEQNCSMKLGTWTYDGSVVAINPESDQPDLSNFMESGEWVIKESRGWKHSVTYSCCPDTPYLDITYHF
notes: The 5' primer adds an initiation codon (and a Gly codon) before residue 1; also called 'less native' fragment
In the assay with mAb 198, B2 displayed an IC50 of 3300 nM.
